Where a chain is given by its changes, count along the chain named.

Experiment in all cases: EMSA; 400 nM protein; 50 ng/ul Poly (competitor (so in the source)), 0.05% NP-40, 50 mM KCl, 5 mM MgCl2, 10 mM EDTA, 20 ul, 0.4 ng (16 fmol) probe; 30 min at room temperature (Methods) or 30 C; pH not stated; synapsis 2 h at 30 C
Details in all cases: protein: recombinant; tags: C-terminal His; chain copies: 2; label: biotin, double-strand end-labeled; blunt
In general terms: Mobility shift assays separate free from complexed probe on a gel.

One data set concerns the target T1, phiC31 integrase C374A (Streptomyces phage phiC31, UniProt Q38194 1-613, C374A).
T1 sequence: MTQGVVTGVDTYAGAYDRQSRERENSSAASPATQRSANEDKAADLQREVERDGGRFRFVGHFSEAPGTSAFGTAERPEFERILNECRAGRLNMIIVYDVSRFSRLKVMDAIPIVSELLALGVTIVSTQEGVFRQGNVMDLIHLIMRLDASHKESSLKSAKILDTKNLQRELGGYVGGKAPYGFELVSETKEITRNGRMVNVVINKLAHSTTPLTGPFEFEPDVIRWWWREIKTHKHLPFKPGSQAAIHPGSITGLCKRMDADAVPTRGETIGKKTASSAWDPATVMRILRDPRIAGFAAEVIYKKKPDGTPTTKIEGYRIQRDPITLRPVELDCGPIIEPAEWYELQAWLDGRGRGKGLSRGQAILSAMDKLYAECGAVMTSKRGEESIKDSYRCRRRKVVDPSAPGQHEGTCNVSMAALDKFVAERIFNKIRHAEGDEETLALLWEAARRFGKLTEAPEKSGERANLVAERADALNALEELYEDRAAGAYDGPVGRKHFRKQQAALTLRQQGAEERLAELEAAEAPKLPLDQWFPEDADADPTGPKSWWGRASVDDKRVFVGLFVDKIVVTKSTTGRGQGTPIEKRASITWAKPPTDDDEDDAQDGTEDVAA

The target in a further data set is T2, phiC31 integrase V571A (Streptomyces phage phiC31, UniProt Q38194 1-613, V571A).
T2 sequence: T1 sequence with A374C, V571A

For another data set, the target named is T3, phiC31 integrase V566A (Streptomyces phage phiC31, UniProt Q38194 1-613, V566A).
T3 sequence: T1 sequence with A374C, V566A

B1: attB 41 bp (dsDNA)
DNA 1: CGGGTGCCAGGGCGTGCCCTTGGGCTCCCCGGGCGCGTACT
DNA 2: AGTACGCGCCCGGGGAGCCCAAGGGCACGCCCTGGCACCCG
For the molecule B1, the binding signal with phiC31 integrase C374A was 0 % of WT; with phiC31 integrase V571A it was 15.6 ± 1.7 % of WT; with phiC31 integrase V566A, 0 % of WT.
